From the supplement of paper PMC7877785
± gives the uncertainty stated by the source.

Assay: self-splicing fitness, log relative to wild type (ln ratio); higher = more splicing; Tetrahymena group I intron in knt gene, E. coli kanamycin selection, DiMSum; sequences stand for … in CUCUCU…GGAGGGAAAAGUUAUCAGGCAUGCACCUGGUAGCUAGUCUUUAAACCAAUAGAUUGCAUCGGUUUAAAAGGCAAGACCGUCAAAUUGCGGGAAAGGGGUCAACAGCCGUUCAGUACCAAGUCUCAGGGGAAACUUUGAGAUGGCCUUGCAAAGGGUAUGGUAAUAAGCUGACGGACAUGGUCCUAACCACGCAGCCAAGUCCUAAGUCAACAGAUCUUCUGUUGAUAUGGAUGCAGUUCACAGACUAAAUGUCGGUCGGGGAAGAUGUAUUCUUCUCAUAAGAUAUAGUCGGACCUCUCCUUAAUGGGAGCUAGCGGAUGAAGUGAUGCAACACUGGAGCCGCUGGGAACUAAUUUGUAUGCGAAAGUAUAUUGAUUAGUUUUGGAGUACUCGUGGUCG
Summary of the method: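 Library with all eight P1ex-region intron nucleotides randomised, intron inside the knt kanamycin-resistance gene on pET-22b(+), in E. coli BL21(DE3). Cells grew overnight at 37°C or 30°C on LB agar with or without 25 μg/mL kanamycin (plus 100 μg/mL carbenicillin, 50 μM IPTG, 0.2% rhamnose), in six replicate transformations. Pooled colonies were amplicon-sequenced on Illumina HiSeq 2500. DiMSum fitness is the error-weighted combination of wild-type-normalised replicate fold changes, kanamycin versus none.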

Sequence	self-splicing fitness (ln) (30 °C)	self-splicing fitness (ln) (37 °C)
CCAUAGCAAUAUUACGGCGG	-1.95 ± 0.13	-1.6 ± 0.18
CCAUAGCAAUAUUACGGGCC		-1.32 ± 0.23
CCAUAGCAAUAUUACGGUAG	-2.01 ± 0.1	-0.787 ± 0.11
CCAUAGCAAUAUUACGGUGA	-1.18 ± 0.11	-1.74 ± 0.12
CCAUAGCAAUAUUACGUCGU	-2.4 ± 0.15	-2.82 ± 0.23
CCAUAGCAAUAUUACGUUAG	-3.33 ± 0.13	-2.01 ± 0.13
CCAUAGCAAUAUUACGUUCA	-3.17 ± 0.26	-2.6 ± 0.44
CCAUAGCAAUAUUACGUUGU	-4.79 ± 0.41	-2.66 ± 0.19
CCCAAGCAAUAUUACGAAAG	-3.49 ± 0.17	-3.39 ± 0.31
CCCAAGCAAUAUUACGAACA	-3.02 ± 0.27	-3.04 ± 0.26
CCCAAGCAAUAUUACGAACC		-2.59 ± 0.35
CCCAAGCAAUAUUACGAACU	-3.54 ± 0.34	-2.91 ± 0.38
CCCAAGCAAUAUUACGACUG	-3.41 ± 0.14	-3.49 ± 0.23
CCCAAGCAAUAUUACGAGCA	-3.01 ± 0.24	-2.95 ± 0.25
CCCAAGCAAUAUUACGAGGC	-4.03 ± 0.15	-3.25 ± 0.18
CCCAAGCAAUAUUACGAUAC	-3.63 ± 0.46	
CCCAAGCAAUAUUACGAUAU	-3.29 ± 0.19	-3.25 ± 0.15
CCCAAGCAAUAUUACGAUUA	-2.97 ± 0.19	-2.9 ± 0.27
CCCAAGCAAUAUUACGCGAC	-3.2 ± 0.21	-2.29 ± 0.19
CCCAAGCAAUAUUACGCGAG	-3.22 ± 0.24	-2.58 ± 0.2
CCCAAGCAAUAUUACGCGGC	-2.8 ± 0.2	-2.38 ± 0.23
CCCAAGCAAUAUUACGCGUC	-3.06 ± 0.16	-2.6 ± 0.29

Sequence	self-splicing fitness (ln) (30 °C)	self-splicing fitness (ln) (37 °C)
CCCAAGCAAUAUUACGCGUU	-4.28 ± 0.18	-1.74 ± 0.12
CCCAAGCAAUAUUACGGAAC	-3.54 ± 0.21	-2.62 ± 0.25
CCCAAGCAAUAUUACGGGAA	-2.75 ± 0.17	-1.96 ± 0.16
CCCAAGCAAUAUUACGGGCU	-3.61 ± 0.18	-2.31 ± 0.17
CCCAAGCAAUAUUACGGUAA	-2.25 ± 0.14	-1.4 ± 0.16
CCCAAGCAAUAUUACGUGCU	-2.08 ± 0.11	-2.6 ± 0.2
CCCAAGCAAUAUUACGUGGC	-3.5 ± 0.13	-2.8 ± 0.18
CCCCAGCAAUAUUACGAACA	-2.51 ± 0.17	-2.85 ± 0.28
CCCCAGCAAUAUUACGACUA	-2.66 ± 0.17	-2.93 ± 0.28
CCCCAGCAAUAUUACGAGCA	-1.5 ± 0.14	-3.13 ± 0.34
CCCCAGCAAUAUUACGCCCG	-1.79 ± 0.17	-2.57 ± 0.28
CCCCAGCAAUAUUACGCGAA	-4.21 ± 0.15	-1.69 ± 0.14
CCCCAGCAAUAUUACGCUGG	-2.76 ± 0.11	-1.73 ± 0.14
CCCCAGCAAUAUUACGGGCG	-3.69 ± 0.15	-1.94 ± 0.11
CCCCAGCAAUAUUACGGUAU	-3.72 ± 0.13	-2.88 ± 0.2
CCCCAGCAAUAUUACGGUCA	-2.71 ± 0.16	-0.931 ± 0.13
CCCCAGCAAUAUUACGUACC	-4.07 ± 0.18	-3.36 ± 0.35
CCCCAGCAAUAUUACGUAGA	-2.95 ± 0.12	-2.7 ± 0.18
CCCCAGCAAUAUUACGUCGA	-4.09 ± 0.23	-2.27 ± 0.15
CCCCAGCAAUAUUACGUUCA	-2.97 ± 0.12	-2.84 ± 0.2
CCCGAGCAAUAUUACGAACA	-2.93 ± 0.3	-2.51 ± 0.35
